In publication PMC5902653 (The Analyst, 2018) one finds Kd data, which are given here for four molecules.

Where two headings read alike, the source gives them in different places. *: point of attachment. FITC = O=C1OC2(c3ccc(O)cc3Oc3cc(O)ccc32)c2ccc(NC(=S)*)cc21; βAla = NCCC(=O)O

Common to all, as to experiment: cross-linking
Test [1] addresses heat shock protein 70 (Hsp70), labeled with AlexaFluor488 (UniProt P0DMV8).
Test [2] has as its target T1, KIX domain of mouse CREB-binding protein (mouse, UniProt P45481 586-665).
Test [3] has as its target T1, KIX domain of mouse CREB-binding protein. The source holds these as a separate data set.

T1 sequence (P45481 586-665): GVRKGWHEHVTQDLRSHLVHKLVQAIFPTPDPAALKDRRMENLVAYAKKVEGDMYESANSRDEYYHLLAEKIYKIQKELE

Regarding “bcl2 association athanogene 3 (Bag3) (from UniProt O95817 1-575) (natural protein)”, the Kd (as a rule, the concentration at which binding is half-saturated) in test [1] was determined as 0.026 µM.
“heat shock protein 70 (Hsp70), labeled with AlexaFluor488 (from UniProt P0DMV8 1-641) (natural protein)” yielded a Kd in test [1] of 1.2 µM.

B1: E2A17 peptide, FITC labeled (peptide)
peptide: {FITC-βAla}-GTDKELSDLLDFSAMFS-NH2
SMILES: CSCC[C@H](NC(=O)[C@H](C)NC(=O)[C@H](CO)NC(=O)[C@H](Cc1ccccc1)NC(=O)[C@H](CC(=O)O)NC(=O)[C@H](CC(C)C)NC(=O)[C@H](CC(C)C)NC(=O)[C@H](CC(=O)O)NC(=O)[C@H](CO)NC(=O)[C@H](CC(C)C)NC(=O)[C@H](CCC(=O)O)NC(=O)[C@H](CCCCN)NC(=O)[C@H](CC(=O)O)NC(=O)[C@@H](NC(=O)CNC(=O)CCNC(=S)Nc1ccc2c(c1)C(=O)OC21c2ccc(O)cc2Oc2cc(O)ccc21)[C@@H](C)O)C(=O)N[C@@H](Cc1ccccc1)C(=O)N[C@@H](CO)C(N)=O
Molecule B1 had a Kd in test [2] of 1.1 ± 0.2 µM.

B2: c-Myb peptide, FITC labeled (peptide)
peptide: {FITC-βAla}-KEKRIKELELLLMSTENELKGQQALW-NH2
SMILES: CC[C@H](C)[C@H](NC(=O)[C@H](CCCNC(=N)N)NC(=O)[C@H](CCCCN)NC(=O)[C@H](CCC(=O)O)NC(=O)[C@H](CCCCN)NC(=O)CCNC(=S)Nc1ccc2c(c1)C(=O)OC21c2ccc(O)cc2Oc2cc(O)ccc21)C(=O)N[C@@H](CCCCN)C(=O)N[C@@H](CCC(=O)O)C(=O)N[C@@H](CC(C)C)C(=O)N[C@@H](CCC(=O)O)C(=O)N[C@@H](CC(C)C)C(=O)N[C@@H](CC(C)C)C(=O)N[C@@H](CC(C)C)C(=O)N[C@@H](CCSC)C(=O)N[C@@H](CO)C(=O)N[C@H](C(=O)N[C@@H](CCC(=O)O)C(=O)N[C@@H](CC(N)=O)C(=O)N[C@@H](CCC(=O)O)C(=O)N[C@@H](CC(C)C)C(=O)N[C@@H](CCCCN)C(=O)NCC(=O)N[C@@H](CCC(N)=O)C(=O)N[C@@H](CCC(N)=O)C(=O)N[C@@H](C)C(=O)N[C@@H](CC(C)C)C(=O)N[C@@H](Cc1c[nH]c2ccccc12)C(N)=O)[C@@H](C)O
As for B2, in test [3], binding was put at a Kd of 3.1 ± 0.5 µM.
